Results on five molecules are retold here after patent publication US9719067B2, “Generation of anterior foregut endoderm from pluripotent cells” (Mount Sinai School of Medicine, priority 2010, dated 2017).

Holding throughout (assay type): cell-based, human
Test [1] deals with ventralized AFE. Kind of test: Induction of lung and parathyroid markers from ventralized AFE. The procedure:
(§1) Mouse embryonic fibroblasts were depleted by a 24 h passage on Ma gel (Gibco) with Y-27632 (10 μM), and embryoid bodies were formed on low-adherence dishes (Costar). During embryoid body formation and differentiation, HES2 cells were reseeded at the same concentration (1:1 dilution), whereas HDF2 and HDF9 required a higher seeding (2:1-4:1 concentration) for efficient endoderm generation. Differentiations were performed in a medium of DMEM/F12 (Invitrogen) supplemented with N2 (Gibco), B27 (Gibco), ascorbic acid (50 μg/ml, Sigma). Glutamax (2 mM, Invitrogen), monothioglycerol ([…], Sigma). The following concentrations of factors were used for primitive streak formation, endoderm induction, anterior/pharyngeal endoderm induction, and subsequent anterior posterior and dorsoventral patterning: human BMP-4, 1 ng/ml and 10 ng/ml; human bFGF, 2.5 ng/ml; human activin A, 100 ng/ml; human Noggin, 200 ng/ml; Y-27632, 1 μM; SB-431542, 10 μM; human FGF10, 10 ng/ml; human FGF7, 10 ng/ml; murine EGF 20 ng/ml; and human WNT3a, 100 ng/ml. Hepatic conditions were as previously described 2 and contain BMP-4, 50 ng/ml; bFGF, 10 ng/ml; VEGF, 10 ng/ml; HGF, 10 ng/ml; TGFα, 20 ng/ml; dexamethasone, 40 ng/ml. All factors were purchased from R&D systems, except SB-431542 and Y-27632, which are from Tocris, and dexamethasone (Sigma). […]
(§2) Total RNA was extracted using Trizol (Invitrogen), phase lock tubes (5′ Prime) and the RNeasy kit (Qiagen). […] Amplified material was detected using SybrGreen (Invitrogen). Real-time quantitative PCR was performed on ABI 7900HT thermocycler (Applied Biosystems), with a 10-min step at 95° C. followed by 40 cycles of 95° C. for 15 s and 60° C. for 1 min. All experiments were done in triplicate with SYBR GreenER quantitative PCR SuperMix (Invitrogen). […] Absolute quantification was obtained in relation to a standard curve of genomic DNA dilution series. Quantified values for the gene of interest were normalized against input determined by the housekeeping genes GAPDH and β-ACTIN, qPCR for each culture well was performed in triplicate.

Test [2] relates to activin A-induced definitive endoderm (HES2). Description: Anteriorization of activin A-induced definitive endoderm, factors added at day 5, marker mRNA by quantitative PCR at day 9. The procedure: as §1
as §2, with “triplicate. […]” for “triplicate.”

Test [3] has as its system hES cell line HES2. Description: Activin A induction of definitive endoderm from hES cells (flow cytometry, cell number). The following applies: after 4 d of exposure to activin A. The procedure:
hESC (HES2, National Institutes of Health code ES02 from ES Cell International; passages 25-33) were cultured on mouse embryonic fibroblasts plated at 8,000-12,000 cells/cm^2, A medium of DMEM/F12, 20% knockout serum replacement (Gibco), 0.1 mM β-mercaptoethanol (Sigma-Aldrich), and 20 ng/ml FGF-2 (R&D) was changed daily. Cells were passaged with trypsin, washed and replated at a dilution of 1:5 to 1:10. HDF2 and HDF9, hiPS cell lines, were cultured as hES2. hES and hiPS cultures were maintained in a 5% CO2/air environment, and hES differentiations were maintained in a 5% CO2/5% O2/90% N2 environment.
Mouse embryonic fibroblasts were depleted by a 24 h passage on Ma gel (Gibco) with Y-27632 (10 μM), and embryoid bodies were formed on low-adherence dishes (Costar). During embryoid body formation and differentiation, HES2 cells were reseeded at the same concentration (1:1 dilution), whereas HDF2 and HDF9 required a higher seeding (2:1-4:1 concentration) for efficient endoderm generation. Differentiations were performed in a medium of DMEM/F12 (Invitrogen) supplemented with N2 (Gibco), B27 (Gibco), ascorbic acid (50 μg/ml, Sigma). Glutamax (2 mM, Invitrogen), monothioglycerol (0.4 μM, Sigma). […]
Day 5 embryoid bodies or day 13 monolayer cultures were dissociated with trypsin/EDTA (2 min). […] Cells were analyzed on a LSRII. […]

[4] abbreviates: retinoic acid added to the WKFBE cocktail.
Setting [5] is: mRNA at day 9, factors added at day 5.

Consider `CC1=C(/C=C/C(C)=C/C=C/C(C)=C/C(=O)O)C(C)(C)CCC1` [retinoic acid, all-trans retinoic acid], for which, in test [1] (setting [4]), the “expression of FOXP2, NKX2.1, GATA6 and FOXJ1” value is on record as “increased”; the “expression of the pharyngeal pouch marker PAX1” value is “decreased”.

B1: WNT3a: human WNT3a, agonist of canonical Wnt signaling; 100 ng/ml (protein, UniProt P56704 19-352, looked up)
Protein Wnt-3a: SYPIWWSLAVGPQYSSLGSQPILCASIPGLVPKQLRFCRNYVEIMPSVAEGIKIGIQECQHQFRGRRWNCTTVHDSLAIFGPVLDKATRESAFVHAIASAGVAFAVTRSCAEGTAAICGCSSRHQGSPGKGWKWGGCSEDIEFGGMVSREFADARENRPDARSAMNRHNNEAGRQAIASHMHLKCKCHGLSGSCEVKTCWWSQPDFRAIGDFLKDKYDSASEMVVEKHRESRGWVETLRPRYTYFKVPTERDLVYYEASPNFCEPNPETGSFGTRDRTCNVSSHGIDGCDLLCCGRGHNARAERRREKCRCVFHWCCYVSCQECTRVYDVHTCK
Consider B1, for which, in test [2] (setting [5]), the CDX2 expression result is recorded as “increased”.

B2: sFRP3: soluble Frizzled-related protein 3, WNT antagonist (protein, UniProt Q92765 33-325, looked up)
Secreted frizzled-related …: AACEPVRIPLCKSLPWNMTKMPNHLHHSTQANAILAIEQFEGLLGTHCSPDLLFFLCAMYAPICTIDFQHEPIKPCKSVCERARQGCEPILIKYRHSWPENLACEELPVYDRGVCISPEAIVTADGADFPMDSSNGNCRGASSERCKCKPIRATQKTYFRNNYNYVIRAKVKEIKTKCHDVTAVVEVKEILKSSLVNIPRDTVNLYTSSGCLCPPLNVNEEYIIMGYEDEERSRLLLVEGSIAEKWKDRLGKKVKRWDMKLRHLGLSKSDSSNSDSTQSQKSGRNSNPRQARN
In the case of B2, in test [2] (day 9, sFRP3 added with NOGGIN/SB-431542), the “induction of PAX9 and SOX2 when added to NOGGIN/SB-431542” value is recorded as “detrimental”. Also, in test [2] (setting [5]), the SOX2 expression result is listed as “not sufficient”.

B3: FGF8: fibroblast growth factor 8, agonist of FGF signaling (protein, UniProt P55075 23-233, looked up)
Fibroblast growth factor 8: QEGPGRGPALGRELASLFRAGREPQGVSQQHVREQSLVTDQLSRRLIRTYQLYSRTSGKHVQVLANKRINAMAEDGDPFAKLIVETDTFGSRVRVRGAETGLYICMNKKGKLIAKSNGKGKDCVFTEIVLENNYTALQNAKYEGWYMAFTRKGRPRKGSKTRQHQREVHFMKRLPRGHHTTEQSLRFEFLNYPPFTRSLRGSQRTWAPEPR
For B3, the “parathyroid-specific marker GCM2” value in test [1] (AFE ventralized with WKFBE in the absence of retinoic acid) was “induced”.

B4: activin A: human activin A, soluble cytokine activating the same receptor as nodal; 100 ng/ml (protein, UniProt P08476 311-426, looked up)
Inhibin beta A chain: GLECDGKVNICCKKQFFVSFKDIGWNDWIIAPSGYHANYCEGECPSHIAGTSGSSLSFHSTVINHYRMRGHSPFANLKSCCVPTKLRPMSMLYYDDGQNIIKKDIQNMIVEECGCS
modifications: Inhibin beta A chain
notes: 100 ng/ml
In the case of B4, in test [3], the “cells expressing the definitive endoderm markers CXCR4, c-KIT and EPCAM” value is on record as more than 95%.
